Experimental data as given in PMC11021269, “HspBP1 in Complex with the Peptide of the Innate Immunity Protein Tag7 is Able to Lyse Tumor Cells Carrying TNFR1 Receptor” (Doklady. Biochemistry and Biophysics, 2024).

Legend:
[1] = system: L929 cells (mouse fibroblasts) bearing the TNFR1 receptor; experiment: Cytotoxicity on L929 cells (Cytotox kit, Promega); assay type: cell-based
Description: L929 cells (mouse fibroblasts) were cultured in DMEM medium (PanEco, RA) supplemented with 10% fetal bovine serum (HyClone, United States). The culture was obtained from the bank of cell lines of the Blokhin Russian Cancer Research Center of the Russian Academy of Medical Sciences. To measure cytotoxicity, proteins and protein complexes were added to the L929 culture at a concentration of 1 nM, unless a different concentration was specified, and incubated for 3 or 20 h. Cytotoxicity was measured using a Cytotox kit (Promega, United States) according to the manufacturer’s method. To inhibit cytotoxicity, blocking antibodies to TNFR1 were used at a concentration of 10 μg/mL (Invitrogen, United States). Data from 5 different experiments are used.

HspBP1 = biological target: T1, HspBP1 (Homo sapiens, UniProt Q9NZL4); experiment: Microscale thermophoresis, binding to Alexa Fluor 633-labeled HspBP1; details: labeled HspBP1 200 nM, 20 min incubation, room temperature, 16 concentrations, triplicate; read-out: dissociation constant of the complex with HspBP1, thermophoresis
T1 construct: made in house
T1 sequence (Q9NZL4 1-359): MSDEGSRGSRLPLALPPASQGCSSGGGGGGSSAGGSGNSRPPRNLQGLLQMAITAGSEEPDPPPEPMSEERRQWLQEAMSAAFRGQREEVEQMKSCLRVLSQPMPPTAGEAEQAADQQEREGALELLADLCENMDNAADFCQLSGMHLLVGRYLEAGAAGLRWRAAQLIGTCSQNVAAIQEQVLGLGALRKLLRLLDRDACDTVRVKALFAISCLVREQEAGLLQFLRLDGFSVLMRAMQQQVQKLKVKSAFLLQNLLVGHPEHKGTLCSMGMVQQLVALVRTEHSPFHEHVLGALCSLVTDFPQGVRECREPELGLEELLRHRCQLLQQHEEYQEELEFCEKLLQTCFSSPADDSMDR
Description: Purified HspBP1 was fluorescently labeled using Alexa Fluor 633 (Eugene, OR, United States) according to the manufacturer’s instructions. HspBP1 (200 nM) was incubated for 20 min with each compound in the dark at room temperature at 16 different concentrations obtained by serial dilution starting with the highest soluble concentration. Samples were loaded into glass capillaries (Monolith NT Capillaries) and analyzed by thermophoresis using a Monolith NT 115 nanotemperature instrument (IR laser power 10%). The signal quality was monitored with a NanoTemper Monolith instrument to detect possible ligand autofluorescence, precipitation, aggregation, or ligand-induced changes in photobleaching rate. Experiments were performed in triplicate and processed using affinity analysis software (MO Control v.1.6.1, Nano-Temper).

Hsp70 = details: shown previously; read-out: dissociation constant for Hsp70; cited from earlier work
Description: For 17.1–HspBP1, equal to 3.91 nM is also close to these values. […] It can be assumed that the lack of cytotoxic activity inTag7–HspBP1 is associated with its dissociation upon interaction with cells. Thus, a correlation between the affinity of protei ...

For “Tag7–HspBP1 complex: complex of the Tag7 protein with the HspBP1 protein”, the “cytotoxic activity (time not given)” value [1] was “does not have cytotoxic activity”, the “cytotoxic activity after 3 h of incubation” value ([1]; complexes at 1 nM, 3 h (apoptosis), 5 experiments) was “did not have cytotoxic activity” and the “cytotoxic activity after 20 h of incubation” value ([1]; complexes at 1 nM, 20 h (necroptosis), 5 experiments) was “did not have cytotoxic activity”.

B1: Tag7: innate immunity protein Tag7, a ligand for the TNFR1 receptor (protein, UniProt O75594 1-196, looked up)
chain: MSRRSMLLAWALPSLLRLGAAQETEDPACCSPIVPRNEWKALASECAQHLSLPLRYVVVSHTAGSSCNTPASCQQQARNVQHYHMKTLGWCDVGYNFLIGEDGLVYEGRGWNFTGAHSGHLWNPMSIGISFMGNYMDRVPTPQAIRAAQGLLACGVAQGALRSNYVLKGHRDVQRTLSPGNQLYHLIQNWPHYRSP
modifications: full-length
notes: innate immunity protein Tag7, a ligand for the TNFR1 receptor
For B1, the Kd (HspBP1) is listed as 328 nM and the Kd (Hsp70) is listed as 1.73 nM.

B2: HspBP1: recombinant co-chaperone that regulates the ATPase activity of Hsp70 (protein, UniProt Q9NZL4 1-359, looked up)
Hsp70-binding protein 1: T1 sequence (Q9NZL4 1-359)
For B2, the “effect on the cytotoxic activity of the Tag7–Hsp70 complex” value ([1]; increasing concentration of HspBP1, Fig. 1a) was “inhibits the cytotoxic activity of the Tag7–Hsp70 complex in a dose-dependent manner”.
